Earlier results, collected in PMC5116031.

Biological target: BECN1 CCD (Rattus norvegicus) (UniProt Q91XJ1)

Sequence of BECN1 CCD (Q91XJ1 174-266): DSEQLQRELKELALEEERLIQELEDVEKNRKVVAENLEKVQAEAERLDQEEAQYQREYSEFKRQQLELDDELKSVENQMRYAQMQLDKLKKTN

BECN1 CCD (from UniProt Q91XJ1)
Kd: 89 µM
